The Human Domainome abundance scans (Beltran et al. 2025)
± gives the uncertainty stated by the source.

B1: POU domain, class 4, transcription factor 1, residues 266 to 347; numbered along this chain, Q01851 (parent)
chain: RELEAFAERFKQRRIKLGVTQADVGSALANLKIPGVGSLSQSTICRFESLTLSHNNMIALKPILQAWLEEAEGAQREKMNKP

Variants of: B1
Assay: abundance fitness (aPCA) (normalised: wild type 0, dead -1); higher = more abundant; growth selection in yeast, the domain comes from the species named
Details: Homo sapiens

Row | Variant | abundance fitness
1 | R9Y | -0.035 ± 0.19
2 | R9K | -0.143 ± 0.16
3 | R13K | -0.048 ± 0.051
4 | R13G | 0.013 ± 0.033
5 | W67G | -0.727 ± 0.071
6 | W67P | -0.646 ± 0.11
7 | W67L | -0.475 ± 0.069
8 | I15N | -0.113 ± 0.04
9 | I15Q | -0.013 ± 0.038
10 | I15P | -0.989 ± 0.084
11 | A74N | -0.019 ± 0.043
12 | A74H | -0.009 ± 0.042
13 | A74C | 0.012 ± 0.034
14 | A74K | -0.009 ± 0.034
15 | Q75F | -0.043 ± 0.081
16 | Q75C | -0.015 ± 0.051
17 | M79F | 0.024 ± 0.04
18 | Q12S | -0.06 ± 0.03
19 | Q12H | -0.097 ± 0.042
20 | Q12F | -0.133 ± 0.044
21 | Q12V | -0.117 ± 0.03
22 | Q12G | -0.205 ± 0.029
23 | Q12M | -0.034 ± 0.039
24 | F47A | -1.03 ± 0.18

Row | Variant | abundance fitness
25 | F47T | -0.822 ± 0.3
26 | R76V | -0.009 ± 0.023
27 | R76E | 0.016 ± 0.028
28 | A5R | 0.006 ± 0.037
29 | A5Y | -0.171 ± 0.11
30 | G35S | -0.29 ± 0.23
31 | G35F | 0.122 ± 0.37
32 | R46G | -0.038 ± 0.038
33 | L17H | -0.54 ± 0.047
34 | L17V | -0.286 ± 0.036
35 | L17P | -1.06 ± 0.08
36 | L17M | -0.072 ± 0.037
37 | A71G | -0.379 ± 0.044
38 | A71Q | -0.051 ± 0.074
39 | A71H | -0.146 ± 0.12
40 | A71S | -0.079 ± 0.067
41 | S38R | 0.048 ± 0.096
42 | S38E | 0.016 ± 0.083
43 | N30S | 0.091 ± 0.08
44 | N30F | 0.037 ± 0.13
45 | N30A | 0.028 ± 0.059
46 | L68G | -0.821 ± 0.11
47 | L68Q | -0.568 ± 0.095
48 | Q65I | -0.105 ± 0.045

Row | Variant | abundance fitness
49 | Q65C | -0.14 ± 0.041
50 | Q65W | -0.144 ± 0.029
51 | Q65F | -0.112 ± 0.041
52 | Q65P | -0.98 ± 0.079
53 | Q65K | -0.049 ± 0.036
54 | Q65E | 0.061 ± 0.031
55 | Q65M | -0.056 ± 0.032
56 | D23A | -0.009 ± 0.066
57 | D23H | -0.156 ± 0.1
58 | K16R | 0.035 ± 0.034
59 | K16N | 0.011 ± 0.035
60 | K16Y | -0.129 ± 0.037
61 | K16T | -0.032 ± 0.028
62 | K16Q | 0.027 ± 0.032
63 | V19I | -0.012 ± 0.078
64 | V19G | -0.55 ± 0.061
65 | V19C | -0.104 ± 0.1
66 | V19R | -0.019 ± 0.037
67 | V19E | -0.396 ± 0.081
68 | A7Q | -0.712 ± 0.056
69 | A7N | -0.582 ± 0.078
70 | R14A | -0.919 ± 0.071
71 | R14I | -0.866 ± 0.082
72 | R14H | -1.16 ± 0.14

Row | Variant | abundance fitness
73 | Q21F | -0.072 ± 0.24
74 | Q21T | -0.072 ± 0.055
75 | K78M | 0.072 ± 0.09
76 | K78S | -0.092 ± 0.059
77 | K78E | 0.035 ± 0.06
78 | K78Q | -0.045 ± 0.12
79 | V24T | -0.544 ± 0.096
80 | V24H | -0.815 ± 0.37
81 | V24F | -0.337 ± 0.14
82 | E72Q | -0.21 ± 0.12
83 | E72N | -0.35 ± 0.22
84 | E72G | -0.267 ± 0.046
85 | L3R | -0.622 ± 0.046
86 | L3Q | -0.262 ± 0.052
87 | L3Y | -0.107 ± 0.084
88 | L3G | -0.523 ± 0.04
89 | P34I | -0.197 ± 0.066
90 | P34W | -0.322 ± 0.041
91 | P34K | -0.065 ± 0.043
92 | T51R | -0.017 ± 0.035
93 | T51I | -0.205 ± 0.041
94 | T51V | -0.105 ± 0.038
95 | V36D | -0.463 ± 0.42
96 | V36T | 0.24 ± 0.15

Row | Variant | abundance fitness
97 | I44T | -0.751 ± 0.15
98 | I44P | -0.864 ± 0.22
99 | I44E | -0.814 ± 0.12
100 | E77A | -0.044 ± 0.03
101 | E77Q | -0.02 ± 0.049
102 | E77H | -0.092 ± 0.062
103 | E77F | -0.16 ± 0.063
104 | F6G | -0.906 ± 0.034
105 | L28T | -0.312 ± 0.042
106 | L28S | -0.639 ± 0.043
107 | L28K | -0.601 ± 0.047
108 | C45A | 0.057 ± 0.043
109 | C45E | 0.06 ± 0.046
110 | C45T | 0.11 ± 0.068
111 | C45G | -0.037 ± 0.031
112 | C45I | -0.001 ± 0.09
113 | E2H | -0.194 ± 0.048
114 | E2L | -0.332 ± 0.032
115 | S49M | -0.101 ± 0.037
116 | S49W | -0.541 ± 0.053
117 | S49E | 0.045 ± 0.039
118 | S49A | -0.004 ± 0.031
119 | S49H | -0.062 ± 0.039
120 | S40M | -0.359 ± 0.096

Row | Variant | abundance fitness
121 | S40E | -0.063 ± 0.051
122 | S40W | -0.369 ± 0.076
123 | A29I | -0.019 ± 0.13
124 | A29P | -0.184 ± 0.16
125 | L31A | -0.059 ± 0.029
126 | L31M | 0.003 ± 0.035
127 | E8P | -0.749 ± 0.2
128 | E8S | 0.014 ± 0.071
129 | E8I | -0.234 ± 0.12
130 | E8C | -0.238 ± 0.12
131 | E8Q | -0.019 ± 0.1
132 | F10G | -0.897 ± 0.035
133 | F10K | -0.9 ± 0.079
134 | F10H | -0.92 ± 0.12
135 | S53V | -0.389 ± 0.055
136 | S53M | -0.419 ± 0.076
137 | S53N | -0.114 ± 0.1
138 | S53C | 0.004 ± 0.089
139 | S53G | -0.039 ± 0.038
140 | E48A | -1.1 ± 0.094
141 | E48N | -0.973 ± 0.11
142 | G25A | 0.04 ± 0.047
143 | G25L | -0.038 ± 0.048
144 | K11P | -0.833 ± 0.24

Row | Variant | abundance fitness
145 | K11W | -0.707 ± 0.12
146 | K11E | -0.476 ± 0.11
147 | K11Q | -0.107 ± 0.12
148 | I58E | -0.023 ± 0.069
149 | I58F | -0.075 ± 0.088
150 | E69R | -0.111 ± 0.038
151 | E69C | -0.168 ± 0.07
152 | L50Y | 0.008 ± 0.04
153 | L50Q | -0.01 ± 0.056
154 | L50S | 0.018 ± 0.033
155 | N55W | -0.023 ± 0.062
156 | N55R | 0.045 ± 0.039
157 | S42L | -0.107 ± 0.045
158 | S42K | 0.093 ± 0.065
159 | S42W | -0.18 ± 0.051
160 | A66H | 0.001 ± 0.059
161 | A66V | -0.12 ± 0.026
162 | A66F | -0.113 ± 0.048
163 | A66S | -0.005 ± 0.031
164 | A66I | -0.141 ± 0.05
165 | L64Q | -0.533 ± 0.18
166 | I63G | -0.274 ± 0.041
167 | I63C | -0.028 ± 0.075
